The values below come from patent US20260055153A1 (published 2026).

A word on the Kd: it is a measure of binding affinity in units of concentration. Lower therefore signals a tighter complex.

In this experiment the target is R1-E5. The experiment in a line: BLI. For orientation: BLI is a label-free optical method that tracks binding on a fibre tip over time.

B1: IL-15Rβ (receptor)
chain: AVNGTSQFTCFYNSRANISCVWSQDGALQDTSCQVHAWPDRRRWNQTCELLPVSQASWACNLILGAPDSQKLTTVDIVTLRVLCREGVRWRVMAIQDFKPFENLRLMAPISLQVVHVETHRCNISWEISQASHYFERHLEFEARTLSPGHTWEEAPLLTLKQKQEWICLETLTPDTQYEFQVRVKPLQGEFTTWSPWSQPLAFRTKPAALGKD
With B1, the Kd came out at 43 nM.
